Test results: patent US20220023420A1 (PRECIGEN, published 2022)
Residue numbers refer to the chain shown, from its start. Numbers in names are those of the source. One block for each binder: values may come before it.

What was measured:
TGF-β1 [1] = molecular target: T1, TGF-β1 (UniProt P01137 279-390); assay: SPR (Biacore 3000), fusion protein immobilized on CM5, TGF-β injected
T1 construct: also called TGF-b1
Method: (§1) Surface plasma resonance (SPR) analysis was performed using Biacore3000, CM5 chip, an amine-coupling kit, 10×HBS-P running buffer and Glycine for regeneration (GE Healthcare). […] Dissociation was allowed to proceed followed by a pulse of 10 mM Glycine (pH 1.5) for regeneration of the chip surface.

TGF-β2 = molecular target: T2, TGF-β2 (UniProt P61812 303-414); assay: as above
T2 sequence (looked up): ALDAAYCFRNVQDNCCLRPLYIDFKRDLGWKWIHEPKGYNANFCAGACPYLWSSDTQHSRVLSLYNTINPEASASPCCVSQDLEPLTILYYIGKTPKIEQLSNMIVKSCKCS
Method: as §1

TGF-β3 = molecular target: T3, TGF-β3 (UniProt P10600 301-412); assay: as above
T3 sequence (looked up): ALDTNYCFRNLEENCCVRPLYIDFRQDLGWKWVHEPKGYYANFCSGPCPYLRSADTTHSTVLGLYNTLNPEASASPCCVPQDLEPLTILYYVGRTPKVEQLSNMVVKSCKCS
Method: as §1

TGF-β1 [2] = molecular target: T1, TGF-β1; assay: cell-based or functional assay
TGF-β1 [3] = molecular target: T1, TGF-β1; assay: cell-based or functional assay; remark: listed apart in the source
PD-1 Fc fusion protein = molecular target: T4, PD-1 Fc fusion protein (UniProt Q15116 25-167, limits assumed); assay: SPR (Biacore), PD-1-Fc antigen on CM5, 1:1 Langmuir with mass transfer
T4 construct: also called PD-1-Fc antigen; PD-1 fused to human Fc region; not shown: human Fc region
Method: PD-1-Fc antigen and reference antigen was immobilized on Biacore CM5 surface. […] Kinetics data was evaluated for 1:1 model: Langmuir with mass transfer.

T1 sequence (P01137 279-390 limits assumed): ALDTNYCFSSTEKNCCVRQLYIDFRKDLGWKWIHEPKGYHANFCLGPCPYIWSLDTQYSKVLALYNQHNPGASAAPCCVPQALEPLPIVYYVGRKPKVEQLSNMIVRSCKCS
T4 sequence (Q15116 25-167 limits assumed): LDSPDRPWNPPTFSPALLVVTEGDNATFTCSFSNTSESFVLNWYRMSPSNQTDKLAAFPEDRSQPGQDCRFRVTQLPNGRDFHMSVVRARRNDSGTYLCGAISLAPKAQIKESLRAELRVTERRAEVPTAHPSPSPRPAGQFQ

Kd (TGF-β1 [1]): 5.22 pM
Kd (TGF-β2): 859 pM
Kd (TGF-β3): 2.19 pM
B1: Anti-PD-1(VH6-VL5) IgG4-TGFβRII (other)
heavy: QVQLVESGGGVVQPGRSLRLDCKASGITFSNSGMHWVRQAPGKGLEWVAVIWYDGSKRYYADSVKGRFTISRDNSKNTLFLQMNSLRAEDTAVYYCATNDDYWGQGTLVTVSSASTKGPSVFPLAPCSRSTSESTAALGCLVKDYFPEPVTVSWNSGALTSGVHTFPAVLQSSGLYSLSSVVTVPSSSLGTKTYTCNVDHKPSNTKVDKRVESKYGPPCPSCPAPEFLGGPSVFLFPPKPKDTLMISRTPEVTCVVVDVSQEDPEVQFNWYVDGVEVHNAKTKPREEQFNSTYRVVSVLTVLHQDWLNGKEYKCKVSNKGLPSSIEKTISKAKGQPREPQVYTLPPSQEEMTKNQVSLTCLVKGFYPSDIAVEWESNGQPENNYKTTPPVLDSDGSFFLYSRLTVDKSRWQEGNVFSCSVMHEALHNHYTQKSLSLSPGKGGGGSGGGGSIPPHVQKSVNNDMIVTDNNGAVKFPQLCKFCDVRFSTCDNQKSCMSNCSITSICEKPQEVCVAVWRKNDENITLETVCHDPKLPYHDFILEDAASPKCIMKEKKKPGETFFMCSCSSDECNDNIIFSEEYNTSNPD
light: not shown
notes: also called anti-PD-1 IgG4 antibody (VH6-VL5)-TGFβRII fusion protein; VH6-IgG4(wt)-linker-ECD with VL5

IC50-inhibition of TGF-β1 induced reporter gene activity (HEK-Blue TGF-β cells, SEAP) (TGF-β1 [2]): 9 pM
B2: Anti-PD-1 (VL5-VH6).IgG4 (antibody, V domains shown)
VH: QVQLVESGGGVVQPGRSLRLDCKASGITFSNSGMHWVRQAPGKGLEWVAVIWYDGSKRYYADSVKGRFTISRDNSKNTLFLQMNSLRAEDTAVYYCATNDDYWGQGTLVTVSS
VL: EIVLTQSPATLSLSPGERATLSCRASQSVSSYLAWYQQKPGQAPRLLIYDASNRATGIPARFSGSGSGTDFTLTISSLEPEDFAVYYCQQSSNWPRTFGQGTKVEIK

IC50, TGF-β1 neutralization activity (HEK-Blue TGF-β reporter cells) (TGF-β1 [3]): 2.7 pM
B3: Anti-PD-1 (VL5-VH6).IgG4-Linker12 -TGFbRII (other)
heavy (part 1 of 2): B2 VH
heavy (part 2 of 2): DPVLEREDKVTTSKNPGSIPPHVQKSVNNDMIVTDNNGAVKFPQLCKFCDVRFSTCDNQKSCMSNCSITSICEKPQEVCVAVWRKNDENITLETVCHDPKLPYHDFILEDAASPKCIMKEKKKPGETFFMCSCSSDECNDNIIFSEEYNTSNPD
VL: B2 VL

IC50, TGF-β1 neutralization activity (HEK-Blue TGF-β reporter cells) (TGF-β1 [3]): 1.2 pM
B4: Anti-PD-1 (VL5-VH6).IgG4-Linker8 -TGFbRII (other)
heavy (part 1 of 2): B2 VH
heavy (part 2 of 2): DPGSGGSVPLGSGGSNPGSIPPHVQKSVNNDMIVTDNNGAVKFPQLCKFCDVRFSTCDNQKSCMSNCSITSICEKPQEVCVAVWRKNDENITLETVCHDPKLPYHDFILEDAASPKCIMKEKKKPGETFFMCSCSSDECNDNIIFSEEYNTSNPD
VL: B2 VL

IC50-inhibition of TGF-β1 induced reporter gene activity (HEK-Blue TGF-β cells, SEAP) (TGF-β1 [2]): 10.7 pM
B5: Anti-PD-1 (nVL1-nVH3).IgG4-TGFbRII (other)
heavy (part 1 of 2): B2 VH with D100N
heavy (part 2 of 2): GGGGSGGGGSIPPHVQKSVNNDMIVTDNNGAVKFPQLCKFCDVRFSTCDNQKSCMSNCSITSICEKPQEVCVAVWRKNDENITLETVCHDPKLPYHDFILEDAASPKCIMKEKKKPGETFFMCSCSSDECNDNIIFSEEYNTSNPD
VL: B2 VL with L4M, S91Y, S92N

IC50, TGF-β1 neutralization activity (HEK-Blue TGF-β reporter cells) (TGF-β1 [3]): 1.9 pM
B6: Anti-PD-1 (VL5-VH6).IgG4-Linker10 -TGFbRII (other)
heavy (part 1 of 2): B2 VH
heavy (part 2 of 2): DPGVLEREDVPTTSYPNPGSIPPHVQKSVNNDMIVTDNNGAVKFPQLCKFCDVRFSTCDNQKSCMSNCSITSICEKPQEVCVAVWRKNDENITLETVCHDPKLPYHDFILEDAASPKCIMKEKKKPGETFFMCSCSSDECNDNIIFSEEYNTSNPD
VL: B2 VL

IC50, TGF-β1 neutralization activity (HEK-Blue TGF-β reporter cells) (TGF-β1 [3]): 1.2 pM
B7: Anti-PD-1 (VL5-VH6).IgG4-Linker 2 -TGFbRII (other)
heavy (part 1 of 2): B2 VH
heavy (part 2 of 2): GGGGSGGGSIPPHVQKSVNNDMIVTDNNGAVKFPQLCKFCDVRFSTCDNQKSCMSNCSITSICEKPQEVCVAVWRKNDENITLETVCHDPKLPYHDFILEDAASPKCIMKEKKKPGETFFMCSCSSDECNDNIIFSEEYNTSNPD
VL: B2 VL

IC50, TGF-β1 neutralization activity (HEK-Blue TGF-β reporter cells) (TGF-β1 [3]): 1.1 pM
B8: Anti-PD-1 (VL5-VH6).IgG4-Linker7 -TGFbRII (other)
heavy (part 1 of 2): B2 VH
heavy (part 2 of 2): DPGSGSVPLGSGSNPGSIPPHVQKSVNNDMIVTDNNGAVKFPQLCKFCDVRFSTCDNQKSCMSNCSITSICEKPQEVCVAVWRKNDENITLETVCHDPKLPYHDFILEDAASPKCIMKEKKKPGETFFMCSCSSDECNDNIIFSEEYNTSNPD
VL: B2 VL

IC50-inhibition of TGF-β1 induced reporter gene activity (HEK-Blue TGF-β cells, SEAP) (TGF-β1 [2]): 54.5 pM
B9: Anti-PD-1 (nVL1-nVH8).IgG4-TGFbRII (other)
heavy (part 1 of 2): EVQLVQSGGGVVQPGRSLRLSCAASGFTFSSYGMHWVRQAPGKGLEWVAVIWYDGSNKYYADSVKGRFTISRDNSKNTLYLQMNSLRAEDTAVYYCATNNDYWGQGTLVTVSS
heavy (part 2 of 2): B5 heavy (part 2 of 2)
VL: B2 VL with L4M, S91Y, S92N

Kd (PD-1 Fc fusion protein): 14.1 pM
B10: Anti-PD-1 (nVL1-nVH3).IgG4(S108P) (antibody, V domains shown)
VH: B2 VH with D100N
VL: B2 VL with L4M, S91Y, S92N
notes: IgG4 with S108P

IC50-inhibition of TGF-β1 induced reporter gene activity (HEK-Blue TGF-β cells, SEAP) (TGF-β1 [2]): 15.1 pM
B11: Anti-PD-1 (nVL1-nVH7).IgG4-TGFbRII (other)
heavy (part 1 of 2): B2 VH with I27F, D100N
heavy (part 2 of 2): B5 heavy (part 2 of 2)
VL: B2 VL with L4M, S91Y, S92N

Kd (PD-1 Fc fusion protein): 14.8 pM
B12: Anti-PD-1 (nVL1-nVH3).IgG4 (antibody, V domains shown)
VH: B2 VH with D100N
VL: B2 VL with L4M, S91Y, S92N
notes: IgG4

IC50-inhibition of TGF-β1 induced reporter gene activity (HEK-Blue TGF-β cells, SEAP) (TGF-β1 [2]): 5.6 pM
B13: Anti-PD-1(VH7-VL6) IgG4-TGFβRII (other)
heavy: QVQLVQSGVEVKKPGASVKVSCKASGYTFTNYYMYWVRQAPGQGLEWMGGINPSNGGTNFNEKFKNRVTLTTDSSTTTAYMELKSLQFDDTAVYYCARRDYRFDMGFDYWGQGTTVTVSSASTKGPSVFPLAPCSRSTSESTAALGCLVKDYFPEPVTVSWNSGALTSGVHTFPAVLQSSGLYSLSSVVTVPSSSLGTKTYTCNVDHKPSNTKVDKRVESKYGPPCPSCPAPEFLGGPSVFLFPPKPKDTLMISRTPEVTCVVVDVSQEDPEVQFNWYVDGVEVHNAKTKPREEQFNSTYRVVSVLTVLHQDWLNGKEYKCKVSNKGLPSSIEKTISKAKGQPREPQVYTLPPSQEEMTKNQVSLTCLVKGFYPSDIAVEWESNGQPENNYKTTPPVLDSDGSFFLYSRLTVDKSRWQEGNVFSCSVMHEALHNHYTQKSLSLSPGKGGGGSGGGGSIPPHVQKSVNNDMIVTDNNGAVKFPQLCKFCDVRFSTCDNQKSCMSNCSITSICEKPQEVCVAVWRKNDENITLETVCHDPKLPYHDFILEDAASPKCIMKEKKKPGETFFMCSCSSDECNDNIIFSEEYNTSNPD
light: EIVLTQSPATLSLSPGERATLSCRASKGVSTSGYSYLHWYQQKPGQAPRLLIYLASYLESGVPARFSGSGSGTDFTLTISSLEPEDFAVYYCQHSRDLPLTFGGGTKVEIKRTVAAPSVFIFPPSDEQLKSGTASVVCLLNNFYPREAKVQWKVDNALQSGNSQESVTEQDSKDSTYSLSSTLTLSKADYEKHKVYACEVTHQGLSSPVTKSFNRGEC
